Results reported in US20240043552A1 (Eli Lilly, published 2024).
Substitutions are numbered along the chain they refer to. Numbers in names are those of the source. One block for each binder: values may come before it.

What was measured:
Experiment in all cases: sandwich ELISA with mis-matched antigens
hHER-2-Fc = biological target: T1, hHER-2-Fc (human, UniProt P04626 23-652)
T1 construct: Bought (R&D systems); Coated on the plate; not shown: Fc of the bought fusion protein
Protocol: (§1) The dual-binding activity of the same synthesized IgG BsAbs is assessed using a sandwich ELISA. […] Sandwich ELISAs are developed for detecting the four different BsAb test articles; one for detecting anti-HER-2/anti-EGFR BsAb activity, one for detecting anti-HER-2/anti-LTPR BsAb activity, one for detecting anti-cMET/anti-EGFR BsAb activity and one for detecting anti-cMET/anti-LTPR BsAb activity. For all ELISAs, clear 96-well round bottom high binding Immulon microtiter plates (Greiner bio-one, cat #650061) are coated overnight at 2-8° C. with 50 μL/well 1 μg/mL hHER-2-Fc or 1 μg/mL hHGFR(cMet)-Fc (both from R&D systems) in a 50 mM Na2CO3 pH 8.3 buffer. The plates are washed 4 times with PBST and blocked with 200 μL/well casein buffer (Pierce) for 1 hr at room temperature. The plates are then washed 4 times with PBST and the parental IgG controls or BsAb IgG test articles are added at 50 μL/well and […] and serially diluted 1:3 down the plate. The controls and test articles are incubated on the plate for 1 hr at room temperature. The plates are then washed 4 times with PBST and 50 μL/well 1 μg/mL hEGFR-Fc-biotin or hLTβR-Fc-biotin (both from R&D systems) is added for 1 hr at room temperature. The plates are then washed 4 times with PBST followed by the addition of a 50 μL/well streptavidin-AP (Jackson Immunoresearch Labs Cat. #016-050-084) diluted 1:1000 in casein buffer. The streptavidin-AP is incubated in each well for 1 hr at room temperature. The plates are then washed 4 times with PBST and 100 μL/well 1-step PNPP substrate is added (Thermo Scientific Cat. #37621). After approximately 5-15 minutes, plates are read for Absorbance (405 nm) using a SPECTRAMAX® UV plate reader (Molecular Devices). Biotin-labeling of the hEGFR-Fc and hLTβR-Fc proteins is performed using EZ-LINK™ Sulfo-NHS-LC-Biotin (Thermo Scientific Cat. #21327) according to the manufacturer's protocol.

hLTβR-Fc-biotin = biological target: T2, hLTβR-Fc-biotin (human, UniProt P36941 28-227, limits assumed, biotin-labelled with EZ-LINK Sulfo-NHS-LC-Biotin)
T2 construct: Bought (R&D systems); Detection antigen of the sandwich; also called LTPR (as printed once); not shown: Fc of the bought fusion protein
Protocol: as §1

hHGFR(cMet)-Fc = biological target: T3, hHGFR(cMet)-Fc (human, UniProt P08581 25-932)
T3 construct: Bought (R&D systems); Coated on the plate; not shown: Fc of the bought fusion protein
Protocol: as §1

hEGFR-Fc-biotin = biological target: T4, hEGFR-Fc-biotin (human, UniProt P00533 25-645, biotin-labelled with EZ-LINK Sulfo-NHS-LC-Biotin)
T4 construct: Bought (R&D systems); Detection antigen of the sandwich; not shown: Fc of the bought fusion protein
Protocol: as §1

T2 sequence (P36941 28-227 limits assumed): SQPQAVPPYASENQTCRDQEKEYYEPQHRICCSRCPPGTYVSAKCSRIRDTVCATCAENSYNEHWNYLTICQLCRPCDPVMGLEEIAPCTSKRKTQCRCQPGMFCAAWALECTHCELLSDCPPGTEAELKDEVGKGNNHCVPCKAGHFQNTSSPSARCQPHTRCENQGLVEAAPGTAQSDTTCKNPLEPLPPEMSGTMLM
T3 sequence (P08581 25-932): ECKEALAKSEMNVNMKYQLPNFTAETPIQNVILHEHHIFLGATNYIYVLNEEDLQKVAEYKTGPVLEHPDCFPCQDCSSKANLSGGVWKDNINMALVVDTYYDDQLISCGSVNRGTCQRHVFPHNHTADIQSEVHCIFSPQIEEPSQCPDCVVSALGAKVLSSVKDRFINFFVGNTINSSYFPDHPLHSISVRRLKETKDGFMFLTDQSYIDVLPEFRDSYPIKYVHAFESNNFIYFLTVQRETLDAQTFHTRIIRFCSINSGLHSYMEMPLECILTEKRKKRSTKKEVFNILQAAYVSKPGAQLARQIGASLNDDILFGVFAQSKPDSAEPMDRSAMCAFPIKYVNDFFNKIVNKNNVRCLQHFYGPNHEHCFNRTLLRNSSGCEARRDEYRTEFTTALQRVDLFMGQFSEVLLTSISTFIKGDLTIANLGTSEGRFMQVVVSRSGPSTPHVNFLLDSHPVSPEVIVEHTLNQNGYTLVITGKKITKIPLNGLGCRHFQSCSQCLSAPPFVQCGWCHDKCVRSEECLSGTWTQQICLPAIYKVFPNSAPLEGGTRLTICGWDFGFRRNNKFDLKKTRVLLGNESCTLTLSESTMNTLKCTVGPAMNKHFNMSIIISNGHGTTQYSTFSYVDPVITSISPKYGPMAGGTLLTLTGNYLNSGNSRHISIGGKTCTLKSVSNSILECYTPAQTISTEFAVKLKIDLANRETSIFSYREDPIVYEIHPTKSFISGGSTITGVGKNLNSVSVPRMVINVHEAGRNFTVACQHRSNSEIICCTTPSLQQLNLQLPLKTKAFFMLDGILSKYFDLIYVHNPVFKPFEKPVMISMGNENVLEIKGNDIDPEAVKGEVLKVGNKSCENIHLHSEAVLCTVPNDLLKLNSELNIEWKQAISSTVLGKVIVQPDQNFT

B1: MetMAb × Matuzumab IgG BsAb, CH1/Cκ Wild-Type (AB / H4DR variable domain designs, 7.8.60 CH3, N297Q) (bispecific antibody)
heavy 1: EVQLVESGGGLVQPGGSLRLSCAASGYTFTSYWLHWVRKAPGKGLEWVGMIDPSNSDTRFNPEFKDRFTISADTSKNTAYLQMNSLRAEDTAVYYCATYRSYVTPLDYWGQGTLVTVSSASTKGPSVFPLAPSSKSTSGGTAALGCLVKDYFPEPVTVSWNSGALTSGVHTFPAVLQSSGLYSLSSVVTVPSSSLGTQTYICNVNHKPSNTKVDKKVEPKSCDKTHTCPPCPAPELLGGPSVFLFPPKPKDTLMISRTPEVTCVVVDVSHEDPEVKFNWYVDGVEVHNAKTKPREEQYQSTYRVVSVLTVLHQDWLNGKEYKCKVSNKALPAPIEKTISKAKGQPREPQVYTLPPSREEMTDNQVSLTCLVKGFYPSDIAVEWESNGQPENNYKTTPPVLMSDGSFFLASKLTVDKSRWQQGNVFSCSVMHEALHNHYTQKSLSLSPG
light 1: RIQMTQSPSSLSASVGDRVTITCKSSQSLLYTSSQKNYLAWYQDKPGKAPKLLIYWASTRESGVPSRFSGSGSGTDFTLTISSLQPEDFATYYCQQYYAYPWTFGQGTKVEIKRTVAAPSVFIFPPSDEQLKSGTASVVCLLNNFYPREAKVQWKVDNALQSGNSQESVTEQDSKDSTYSLSSTLTLSKADYEKHKVYACEVTHQGLSSPVTKSFNRGEC
heavy 2: QVQLVQSGAEVKKPGASVKVSCKASGYTFTSHWMHWVRYAPGQGLEWIGEFNPSNGRTNYNEKFKSKATMTVDTSTNTAYMELSSLRSEDTAVYYCASRDYDYDGRYFDYWGRGTLVTVSSASTKGPSVFPLAPSSKSTSGGTAALGCLVKDYFPEPVTVSWNSGALTSGVHTFPAVLQSSGLYSLSSVVTVPSSSLGTQTYICNVNHKPSNTKVDKKVEPKSCDKTHTCPPCPAPELLGGPSVFLFPPKPKDTLMISRTPEVTCVVVDVSHEDPEVKFNWYVDGVEVHNAKTKPREEQYQSTYRVVSVLTVLHQDWLNGKEYKCKVSNKALPAPIEKTISKAKGQPRRPRVYTLPPSREEMTKNQVSLVCLVKGFYPSDIAVEWESNGQPENNYKTTPPVLDSDGSFFLYSVLTVDKSRWQQGNVFSCSVMHEALHNHYTQKSLSLSPG
light 2: DIQMTQSPSSLSASVGDRVTITCSASSSVTYMYWYQRKPGDAPKLLIYDTSNLASGVPSRFSGSGSGTDYTFTISSLQPEDIATYYCQQWSSHIFTFGQGTKVEIKRTVAAPSVFIFPPSDEQLKSGTASVVCLLNNFYPREAKVQWKVDNALQSGNSQESVTEQDSKDSTYSLSSTLTLSKADYEKHKVYACEVTHQGLSSPVTKSFNRGEC
notes: Human IgG1; also called MetMAb × Matuzumab Wild-Type
binding result (hHER-2-Fc): no binding | binding result (hLTβR-Fc-biotin): no binding

B2: MetMAb × Matuzumab IgG BsAb, CH1/Cκ design 14.3.1.2 (bispecific antibody)
heavy 1: B1 heavy 1 with K149A, S185G
light 1: B1 light 1 with S137R, S182I
heavy 2: B1 heavy 2 with K217E
light 2: B1 light 2 with E122K
notes: Human IgG1; also called MetMAb × Matuzumab 14.3.1.2
binding result (hHER-2-Fc): no binding | binding result (hLTβR-Fc-biotin): no binding

B3: MetMAb × Matuzumab IgG BsAb, CH1/Cκ design 14.1.2 (bispecific antibody)
heavy 1: B1 heavy 1 with K149A, K215E
light 1: B1 light 1 with E129K, S137R
heavy 2: B1 heavy 2
light 2: B1 light 2
notes: Human IgG1; also called MetMAb × Matuzumab 14.1.2
binding result (hHER-2-Fc): no binding | binding result (hLTβR-Fc-biotin): no binding

B4: MetMAb × Matuzumab IgG BsAb, CH1/Cκ design 14.3.1.1 (bispecific antibody)
heavy 1: B1 heavy 1 with K149A, S185A
light 1: B1 light 1 with S137R, S182I
heavy 2: B1 heavy 2 with K217E
light 2: B1 light 2 with E122K
notes: Human IgG1; also called MetMAb × Matuzumab 14.3.1.1
binding result (hHER-2-Fc): no binding | binding result (hLTβR-Fc-biotin): no binding

B6: Pertuzumab × Matuzumab IgG BsAb, CH1/Cκ Wild-Type (AB / H4DR variable domain designs, 7.8.60 CH3, N297Q) (bispecific antibody)
heavy 1: EVQLVESGGGLVQPGGSLRLSCAASGFTFTDYTMDWVRKAPGKGLEWVADVNPNSGGSIYNQEFKGRFTLSVDRSKNTLYLQMNSLRAEDTAVYYCARNLGPSFYFDYWGQGTLVTVSSASTKGPSVFPLAPSSKSTSGGTAALGCLVKDYFPEPVTVSWNSGALTSGVHTFPAVLQSSGLYSLSSVVTVPSSSLGTQTYICNVNHKPSNTKVDKKVEPKSCDKTHTCPPCPAPELLGGPSVFLFPPKPKDTLMISRTPEVTCVVVDVSHEDPEVKFNWYVDGVEVHNAKTKPREEQYQSTYRVVSVLTVLHQDWLNGKEYKCKVSNKALPAPIEKTISKAKGQPREPQVYTLPPSREEMTDNQVSLTCLVKGFYPSDIAVEWESNGQPENNYKTTPPVLMSDGSFFLASKLTVDKSRWQQGNVFSCSVMHEALHNHYTQKSLSLSPG
light 1: RIQMTQSPSSLSASVGDRVTITCKASQDVSIGVAWYQDKPGKAPKLLIYSASYRYTGVPSRFSGSGSGTDFTLTISSLQPEDFATYYCQQYYIYPYTFGQGTKVEIKRTVAAPSVFIFPPSDEQLKSGTASVVCLLNNFYPREAKVQWKVDNALQSGNSQESVTEQDSKDSTYSLSSTLTLSKADYEKHKVYACEVTHQGLSSPVTKSFNRGEC
heavy 2: B1 heavy 2
light 2: B1 light 2
notes: Human IgG1; also called Pertuzumab × Matuzumab Wild-Type
binding result (hHGFR(cMet)-Fc): no binding | binding result (hLTβR-Fc-biotin): no binding

Second part, the binder after the results:

binding result (hHGFR(cMet)-Fc): no binding | binding result (hEGFR-Fc-biotin): no binding
B5: Pertuzumab × BHA10 IgG BsAb, CH1/Cκ design 14.3.1.1 (bispecific antibody)
heavy 1: B6 heavy 1 with K149A, S185A
light 1: B6 light 1 with S131R, S176I
heavy 2: QVQLVQSGAEVKKPGSSVKVSCKASGYTFTTYYLHWVRYAPGQGLEWMGWIYPGNVHAQYNEKFKGRVTITADKSTSTAYMELSSLRSEDTAVYYCARSWEGFPYWGRGTTVTVSSASTKGPSVFPLAPSSKSTSGGTAALGCLVKDYFPEPVTVSWNSGALTSGVHTFPAVLQSSGLYSLSSVVTVPSSSLGTQTYICNVNHKPSNTKVDEKVEPKSCDKTHTCPPCPAPELLGGPSVFLFPPKPKDTLMISRTPEVTCVVVDVSHEDPEVKFNWYVDGVEVHNAKTKPREEQYQSTYRVVSVLTVLHQDWLNGKEYKCKVSNKALPAPIEKTISKAKGQPRRPRVYTLPPSREEMTKNQVSLVCLVKGFYPSDIAVEWESNGQPENNYKTTPPVLDSDGSFFLYSVLTVDKSRWQQGNVFSCSVMHEALHNHYTQKSLSLSPG
light 2: DIQMTQSPSSLSASVGDRVTITCKASQNVGINVAWYQRKPGDAPKSLISSASYRYSGVPSRFSGSGSGTDFTLTISSLQPEDFATYFCQQYDTYPFTFGQGTKVEIKRTVAAPSVFIFPPSDKQLKSGTASVVCLLNNFYPREAKVQWKVDNALQSGNSQESVTEQDSKDSTYSLSSTLTLSKADYEKHKVYACEVTHQGLSSPVTKSFNRGEC
notes: Human IgG1; also called Pertuzumab × BHA10 14.3.1.1

binding result (hHGFR(cMet)-Fc): no binding | binding result (hEGFR-Fc-biotin): no binding
B7: Pertuzumab × BHA10 IgG BsAb, CH1/Cκ design 14.3.1.2 (bispecific antibody)
heavy 1: B6 heavy 1 with K149A, S185G
light 1: B6 light 1 with S131R, S176I
heavy 2: B5 heavy 2
light 2: B5 light 2
notes: Human IgG1; also called Pertuzumab × BHA10 14.3.1.2

binding result (hHGFR(cMet)-Fc): no binding | binding result (hLTβR-Fc-biotin): no binding
B8: Pertuzumab × Matuzumab IgG BsAb, CH1/Cκ design 14.3.1.1 (bispecific antibody)
heavy 1: B6 heavy 1 with K149A, S185A
light 1: B6 light 1 with S131R, S176I
heavy 2: B1 heavy 2 with K217E
light 2: B1 light 2 with E122K
notes: Human IgG1; also called Pertuzumab × Matuzumab 14.3.1.1

binding result (hHGFR(cMet)-Fc): no binding | binding result (hLTβR-Fc-biotin): no binding
B9: Pertuzumab × Matuzumab IgG BsAb, CH1/Cκ design 14.1.2 (bispecific antibody)
heavy 1: B6 heavy 1 with K149A, K215E
light 1: B6 light 1 with E123K, S131R
heavy 2: B1 heavy 2
light 2: B1 light 2
notes: Human IgG1; also called Pertuzumab × Matuzumab 14.1.2

binding result (hHGFR(cMet)-Fc): no binding | binding result (hLTβR-Fc-biotin): no binding
B10: Pertuzumab × Matuzumab IgG BsAb, CH1/Cκ design 14.3.1.2 (bispecific antibody)
heavy 1: B6 heavy 1 with K149A, S185G
light 1: B6 light 1 with S131R, S176I
heavy 2: B1 heavy 2 with K217E
light 2: B1 light 2 with E122K
notes: Human IgG1; also called Pertuzumab × Matuzumab 14.3.1.2
